Measurements published in patent publication US20030104422A1.
Where “and” joins values, the source holds several entries; their conditions need not be identical. Equal entries are not always repeated.

Assays:
[1] = molecular target: human placental alkaline phosphatase (PLAP, Sigma) (human) (UniProt P05187); experiment: ELISA on coated hPLAP; mAb 64 ng/ml in PBS, diluted 1:32
[2] = molecular target: human placental alkaline phosphatase (PLAP, Sigma) (human) (UniProt P05187); experiment: ELISA on coated hPLAP; mAb 64 ng/ml spiked in negative serum, diluted 1:2
[3] = molecular target: human placental alkaline phosphatase (PLAP, Sigma) (human) (UniProt P05187); experiment: ELISA on coated hPLAP; mAb 64 ng/ml in PBS, diluted 1:4
[4] = molecular target: human placental alkaline phosphatase (PLAP, Sigma) (human) (UniProt P05187); experiment: ELISA on coated hPLAP; mAb 64 ng/ml spiked in negative serum, undiluted
[5] = molecular target: human placental alkaline phosphatase (PLAP, Sigma) (human) (UniProt P05187); experiment: ELISA on coated hPLAP; mAb 64 ng/ml spiked in negative serum, diluted 1:4
[6] = molecular target: human placental alkaline phosphatase (PLAP, Sigma) (human) (UniProt P05187); experiment: ELISA on coated hPLAP; mAb 64 ng/ml spiked in negative serum, diluted 1:64
[7] = molecular target: human placental alkaline phosphatase (PLAP, Sigma) (human) (UniProt P05187); experiment: ELISA on coated hPLAP; mAb 64 ng/ml in PBS, diluted 1:8
[8] = molecular target: human placental alkaline phosphatase (PLAP, Sigma) (human) (UniProt P05187); experiment: ELISA on coated hPLAP; mAb 64 ng/ml spiked in negative serum, diluted 1:8
[9] = molecular target: human placental alkaline phosphatase (PLAP, Sigma) (human) (UniProt P05187); experiment: ELISA on coated hPLAP; mAb 64 ng/ml in PBS, diluted 1:16
[10] = molecular target: human placental alkaline phosphatase (PLAP, Sigma) (human) (UniProt P05187); experiment: ELISA on coated hPLAP; mAb 64 ng/ml spiked in negative serum, diluted 1:32
[11] = molecular target: human placental alkaline phosphatase (PLAP, Sigma) (human) (UniProt P05187); experiment: ELISA on coated hPLAP; mAb 64 ng/ml in PBS, undiluted
[12] = molecular target: human placental alkaline phosphatase (PLAP, Sigma) (human) (UniProt P05187); experiment: ELISA on coated hPLAP; mAb 64 ng/ml spiked in negative serum, diluted 1:16
[13] = molecular target: human placental alkaline phosphatase (PLAP, Sigma) (human) (UniProt P05187); experiment: ELISA on coated hPLAP; mAb 64 ng/ml in PBS, diluted 1:2
[14] = molecular target: human placental alkaline phosphatase (PLAP, Sigma) (human) (UniProt P05187); experiment: ELISA on coated hPLAP; mAb 64 ng/ml in PBS, diluted 1:64
[15] = molecular target: human placental alkaline phosphatase (PLAP, Sigma) (human) (UniProt P05187); experiment: ELISA on coated hPLAP; row labelled '0' (apparently no sample, background)

Sequence of UniProt P05187 (P05187 23-506 limits assumed): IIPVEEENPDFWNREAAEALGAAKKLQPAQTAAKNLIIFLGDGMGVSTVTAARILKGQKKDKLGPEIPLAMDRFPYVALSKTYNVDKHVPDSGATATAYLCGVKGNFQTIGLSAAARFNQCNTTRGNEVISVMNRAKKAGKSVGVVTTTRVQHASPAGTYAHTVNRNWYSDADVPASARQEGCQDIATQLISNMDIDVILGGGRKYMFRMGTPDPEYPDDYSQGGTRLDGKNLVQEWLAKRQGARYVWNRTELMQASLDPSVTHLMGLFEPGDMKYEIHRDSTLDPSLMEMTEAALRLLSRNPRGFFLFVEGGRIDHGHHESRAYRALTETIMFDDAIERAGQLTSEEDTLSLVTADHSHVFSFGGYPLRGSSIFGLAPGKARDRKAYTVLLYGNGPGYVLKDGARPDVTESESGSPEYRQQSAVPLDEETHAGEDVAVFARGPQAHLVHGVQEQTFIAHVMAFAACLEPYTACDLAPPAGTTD

absorbance at 450 nm (absorbance at 450 nm) [1] | absorbance at 450 nm (absorbance at 450 nm) [2] | absorbance at 450 nm (absorbance at 450 nm) [3] | absorbance at 450 nm (absorbance at 450 nm) [4] | absorbance at 450 nm (absorbance at 450 nm) [5] | absorbance at 450 nm (absorbance at 450 nm) [6] | absorbance at 450 nm (absorbance at 450 nm) [7] | absorbance at 450 nm (absorbance at 450 nm) [8] | absorbance at 450 nm (absorbance at 450 nm) [9] | absorbance at 450 nm (absorbance at 450 nm) [10] | absorbance at 450 nm (absorbance at 450 nm) [11] | absorbance at 450 nm (absorbance at 450 nm) [12] | absorbance at 450 nm (absorbance at 450 nm) [13] | absorbance at 450 nm (absorbance at 450 nm) [14] | absorbance at 450 nm (absorbance at 450 nm) [15] | Substance
0.091 | 0.439 | 0.424 | 0.546 | 0.341 | 0.042 | 0.282 | 0.209 | 0.169 | 0.071 | 0.486 | 0.123 | 0.487 | 0.047 | 0.007 and 0.009 | mouse monoclonal antibody to PLAP (clone 8B6, Sigma Immunochemicals)
 |  |  |  |  |  |  |  |  |  |  |  |  |  | 0.005 | negative control serum (serum of mice injected with saline)
